Results published in patent KR20120084755A (dated 2012).

Experiments:
[1] = biological target: T1, RSV 긴 균주(Long strain)로부터의 HIS 태그 포함 재조합 F 단백질 (Respiratory Syncytial Virus (RSV), Long …, UniProt P12568 26-524); test: direct ELISA, purified HIS-tagged F on Ni-NTA HisSorp plates (Fig. 3b right)
T1 construct: not shown: poly-HIS tag

RSV A2 바이러스의 F 단백질 = RSV A2 바이러스의 F 단백질 (Respiratory Syncytial Virus (RSV), …, UniProt P03420 26-574); test: cell-based or functional assay
Chain of RSV A2 바이러스의 F 단백질 (P03420 26-574): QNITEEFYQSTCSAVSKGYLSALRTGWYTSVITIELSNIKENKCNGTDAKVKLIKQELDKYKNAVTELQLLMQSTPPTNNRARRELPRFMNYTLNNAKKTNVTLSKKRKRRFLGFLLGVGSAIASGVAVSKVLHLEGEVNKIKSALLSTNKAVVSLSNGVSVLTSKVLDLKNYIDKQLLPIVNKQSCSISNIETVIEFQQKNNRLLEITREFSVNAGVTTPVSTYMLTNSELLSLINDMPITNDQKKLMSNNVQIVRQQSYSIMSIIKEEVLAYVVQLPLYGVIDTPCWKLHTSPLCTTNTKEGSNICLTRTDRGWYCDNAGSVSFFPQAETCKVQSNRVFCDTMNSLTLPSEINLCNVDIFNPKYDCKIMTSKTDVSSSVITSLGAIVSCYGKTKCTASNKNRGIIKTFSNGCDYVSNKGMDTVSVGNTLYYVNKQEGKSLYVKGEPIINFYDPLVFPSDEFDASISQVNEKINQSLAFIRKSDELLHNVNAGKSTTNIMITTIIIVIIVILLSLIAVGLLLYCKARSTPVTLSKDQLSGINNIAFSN

T1 sequence (P12568 26-524): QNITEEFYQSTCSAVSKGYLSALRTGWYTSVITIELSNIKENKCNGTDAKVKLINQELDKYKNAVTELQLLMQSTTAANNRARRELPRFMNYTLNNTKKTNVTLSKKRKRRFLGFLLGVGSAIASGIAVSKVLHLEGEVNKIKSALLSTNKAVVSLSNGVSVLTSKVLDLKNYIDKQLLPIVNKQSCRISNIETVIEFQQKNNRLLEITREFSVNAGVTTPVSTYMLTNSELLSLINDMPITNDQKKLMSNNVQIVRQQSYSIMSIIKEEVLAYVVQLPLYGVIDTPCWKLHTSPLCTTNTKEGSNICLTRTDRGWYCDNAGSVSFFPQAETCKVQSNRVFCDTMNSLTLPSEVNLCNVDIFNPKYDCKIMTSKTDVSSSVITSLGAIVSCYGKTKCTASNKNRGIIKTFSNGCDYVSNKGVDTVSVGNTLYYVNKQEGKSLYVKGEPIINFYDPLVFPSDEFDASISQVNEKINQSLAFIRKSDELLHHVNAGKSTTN

B1: AM22 (antibody, V domains shown)
VH: QVQLVQSGAEVKKPGATVKVSCKISGHTLIKLSIHWVRQAPGKGLEWMGGYEGEVDEIFYAQKFQHRLTVIADTATDTVYMELGRLTSDDTAVYFCGTLGVTVTEAGLGIDDYWGQGTLVTVSS
VL: EIVLTQSPGTLSLSPGERATLSCRASQIVSRNHLAWYQQKPGQAPRLLIFGASSRATGIPVRFSGSGSGTDFTLTINGLAPEDFAVYYCLSSDSSIFTFGPGTKVDFK
notes: also called 재조합 AM22 mAb; AM22 항체
**Q.** Does B1 bind [1]?
**A.** no binding

**Q.** And the “IC50, RSV A2 neutralisation on HEp2 cells (standard TCID50 culture assay)” value (RSV A2 바이러스의 F 단백질)?
**A.** 1.15 ng/㎖
